In article PMC11036296:

Target: Patched 1 (Ptch1) receptor (mouse (endogenous in C3H10T1/2)) (UniProt Q61115)
Chain of UniProt Q61115 (Q61115 whole entry): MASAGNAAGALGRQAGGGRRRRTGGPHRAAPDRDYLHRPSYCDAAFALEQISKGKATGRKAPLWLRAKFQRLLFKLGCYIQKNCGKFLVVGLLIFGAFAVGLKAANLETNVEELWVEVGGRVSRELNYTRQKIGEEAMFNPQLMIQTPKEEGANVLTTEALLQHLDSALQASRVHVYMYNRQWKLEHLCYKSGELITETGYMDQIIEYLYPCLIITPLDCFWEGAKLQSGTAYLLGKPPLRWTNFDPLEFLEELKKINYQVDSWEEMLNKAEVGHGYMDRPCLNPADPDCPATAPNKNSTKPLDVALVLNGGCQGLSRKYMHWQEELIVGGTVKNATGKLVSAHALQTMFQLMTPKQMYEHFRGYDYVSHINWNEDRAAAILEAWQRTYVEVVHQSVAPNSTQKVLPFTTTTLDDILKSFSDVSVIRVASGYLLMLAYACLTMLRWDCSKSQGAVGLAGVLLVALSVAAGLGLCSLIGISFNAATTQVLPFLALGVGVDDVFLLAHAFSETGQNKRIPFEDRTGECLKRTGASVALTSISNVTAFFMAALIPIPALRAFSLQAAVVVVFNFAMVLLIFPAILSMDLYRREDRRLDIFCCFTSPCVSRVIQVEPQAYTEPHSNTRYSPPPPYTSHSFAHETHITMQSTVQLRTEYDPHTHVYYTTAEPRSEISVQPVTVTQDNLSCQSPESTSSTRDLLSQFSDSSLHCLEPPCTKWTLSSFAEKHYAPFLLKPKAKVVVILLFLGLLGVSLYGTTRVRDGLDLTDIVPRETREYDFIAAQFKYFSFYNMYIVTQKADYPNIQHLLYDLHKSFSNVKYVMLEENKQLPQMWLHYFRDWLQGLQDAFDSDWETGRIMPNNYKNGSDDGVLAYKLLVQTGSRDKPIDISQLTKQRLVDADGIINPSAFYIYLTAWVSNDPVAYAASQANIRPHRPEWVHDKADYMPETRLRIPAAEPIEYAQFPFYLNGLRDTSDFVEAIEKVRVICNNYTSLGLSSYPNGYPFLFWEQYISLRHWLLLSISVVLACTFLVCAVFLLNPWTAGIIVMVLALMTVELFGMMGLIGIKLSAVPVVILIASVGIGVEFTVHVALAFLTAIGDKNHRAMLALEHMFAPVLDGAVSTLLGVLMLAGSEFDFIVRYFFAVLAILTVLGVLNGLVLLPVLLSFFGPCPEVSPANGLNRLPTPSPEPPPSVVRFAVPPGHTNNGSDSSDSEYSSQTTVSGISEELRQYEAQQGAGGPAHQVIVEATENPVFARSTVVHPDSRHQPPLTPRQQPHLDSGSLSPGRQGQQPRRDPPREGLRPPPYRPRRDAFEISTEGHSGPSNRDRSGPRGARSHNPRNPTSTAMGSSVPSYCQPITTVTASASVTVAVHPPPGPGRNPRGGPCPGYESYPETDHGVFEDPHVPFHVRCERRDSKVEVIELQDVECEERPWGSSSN

Alp1 activity of C3H10T1/2 cells (differentiation into osteoblasts) [au]	Alp1 activity of C3H10T1/2 cells (differentiation into osteoblasts), with the Shh-neutralising antibody 5E1 (1 µg/mL) [au]	Substance
0.39		^C25S;Δ26–36Shh^C (from UniProt Q62226 25-198) (ligand)
1.41		^C25S;Δ26–31Shh^C (from UniProt Q62226 25-198) (ligand)
1.71	0.21	^C25SShh^C, unpalmitoylated cholesteroylated soluble Shh (from UniProt Q62226 25-198) (ligand)
1.5	0.26	Shh^C, soluble depalmitoylated (N-terminally processed), C-cholesteroylated Sonic hedgehog released in the presence of 10% serum (ligand)
1.65		^C25S;Δ26–33Shh^C (from UniProt Q62226 25-198) (ligand)
1.26		^C25S;Δ26–32Shh^C (from UniProt Q62226 25-198) (ligand)
0.7		^C25S;Δ26–34Shh^C (from UniProt Q62226 25-198) (ligand)
0.36		^C25S;Δ26–38Shh^C (from UniProt Q62226 25-198) (ligand)
0.38		^C25S;Δ26–35Shh^C (from UniProt Q62226 25-198) (ligand)
0.46		^C25S;Δ26–37Shh^C (from UniProt Q62226 25-198) (ligand)
